Measurements published in US20190307868A1 (published 2019).

Target: HLA-B08:01 (human)
Assay: peptide-MHC-I complex dissociation half-life, 125I-b2m, 37 C
Procedure: Briefly, synthetic genes encoding biotinylated MHC-I heavy and light chains are expressed in E. coli and purified from inclusion bodies using standard methods. The light chain (β2m) is radio-labeled with iodine (¹²⁵I), and combined with the purified MHC-I heavy chain and peptide of interest at 18° C. to initiate pMHC-I complex formation. These reactions are carried out in streptavidin coated microplates to bind th biotinylated MHC-I heavy chains to the surface and allow measurement of radiolabeled light chain to monitor complex formation. Dissociation is initiated by addition of higher concentrations of unlabeled light-chain and incubation at 37° C. Stability is defined as the length of time in hours it takes for half of the complexes to dissociate, as measured by scintillation counts

Stability (T1/2 (h)): 0 h
Binder: QVYRRKHQEL [QVYRRKHQEL (EML4:ALK)]
